This passage reports stoichiometry N results from article doi:10.1101/2023.10.19.563106.

The experiment concerns the target Escherichia coli CTP synthase (ecCTPS), wild type (Escherichia coli) (UniProt P0A7E5). Nature of the experiment: cryo-EM structure.

The stoichiometry N is the number of molecules, sites or subunits per partner or assembly. With “Escherichia coli CTP synthase (ecCTPS), wild type (from UniProt P0A7E5 1-545) (enzyme)”, the stoichiometry N was determined as 4.
